From PMC5615192 (mBio, 2017) come the findings set out here.

The target in one assay is MAb A12A3 (mouse). In words: SPR; Biacore 3000; MAb (10 ug/ml) captured on a CM-5 chip amine coupled with goat anti-mouse Fc fragment; serially diluted pentamer injected at 30 ul/min for 3.3 min; HBS (10 mM HEPES pH 7.4, 150 mM NaCl); three measurements, mean and standard deviation. (In SPR one partner is held on a chip, and binding of the other changes the refractive index at the surface.)

The target of assay [1] is HPV33 KAT L1 VLP (triple mutant K161R, A168S, T308N) (human papillomavirus type 33) (UniProt P06416).
Assay [2] has as its target T1, HPV58 L1 VLP R161A (human papillomavirus type 58) (UniProt P26535).
T1 sequence: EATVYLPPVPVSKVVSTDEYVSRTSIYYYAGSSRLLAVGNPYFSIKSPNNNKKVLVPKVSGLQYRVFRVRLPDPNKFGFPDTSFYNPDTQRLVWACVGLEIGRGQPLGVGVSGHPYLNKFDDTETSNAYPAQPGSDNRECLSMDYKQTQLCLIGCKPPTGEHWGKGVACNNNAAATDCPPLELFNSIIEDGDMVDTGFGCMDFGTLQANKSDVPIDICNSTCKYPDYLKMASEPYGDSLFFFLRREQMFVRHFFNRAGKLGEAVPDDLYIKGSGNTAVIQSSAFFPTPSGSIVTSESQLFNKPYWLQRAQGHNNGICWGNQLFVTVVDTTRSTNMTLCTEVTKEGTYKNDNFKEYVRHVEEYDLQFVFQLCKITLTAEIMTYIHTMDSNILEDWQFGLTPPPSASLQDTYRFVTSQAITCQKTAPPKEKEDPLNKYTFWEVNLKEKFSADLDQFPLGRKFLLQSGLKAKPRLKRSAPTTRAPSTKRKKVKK
In words: ELISA; indirect ELISA; wells coated with wild-type or mutant VLPs or pentamers (300 ng/well, overnight at 4°C); 2-fold serial dilutions of the antibody, 1 h at 37°C; detected with HRP goat anti-mouse IgG.

The target of assay [3] is T2, HPV58 L1 VLP N308A (human papillomavirus type 58) (UniProt P26535).
T2 sequence: T1 sequence with A128R, N275A
The assay is described as above.

Assay [4] deals with T3, HPV58 L1 VLP D154A (human papillomavirus type 58) (UniProt P26535).
T3 sequence: T1 sequence with D121A, A128R
The description is as above.

The target in assay [5] is T4, HPV58 L1 pentamer (Human papillomavirus type 58 (GenBank …, UniProt P26535)).
T4 construct: also called HPV58p; HPV58 pentamer; source: cloned into pTO-T7
In words: SPR; Biacore 3000; MAb (10 ug/ml) […]; HBS (10 mM HEPES pH 7.4, 150 mM NaCl); […]. The conditions noted are these: both partners purified.

The target of assay [6] is T5, HPV58 L1 pentamer (human papillomavirus type 58, UniProt P26535 34-524).
T5 chain: T1 sequence with A128R
In words: ELISA. A general note: In an ELISA, binding on a coated surface is turned into a signal by an enzyme label.

For the next assay, the target named is T6, HPV58 L1 VLP (human papillomavirus type 58, UniProt P26535 34-524).
T6 chain: T1 sequence with A128R
In words: ELISA.

Numbering of substitutions follows the chain as printed. Names may count otherwise.

B1: HPV58 L1 pentamer R161A (natural protein)
chain: T1 sequence
In the assay with MAb A12A3 (mouse), B1 displayed a Ka of 994000 M⁻¹, a Kd of 1120 nM, a koff of 9.98e-06 s⁻¹ and a kon of 10.1 M⁻¹ s⁻¹.

B2: HPV58 L1 pentamer D154A (natural protein)
chain: T1 sequence with D121A, A128R
For the molecule B2, in the assay with MAb A12A3 (mouse), the Ka came out at 4.18e+06 M⁻¹, the Kd amounted to 240 nM, the koff is 0.102 s⁻¹ and the association rate constant (kon) worked out at 426000 M⁻¹ s⁻¹.

B3: HPV58 L1 pentamer N308A (natural protein)
chain: T1 sequence with A128R, N275A
In the assay with MAb A12A3 (mouse), B3 registered a Ka of 8.99e+06 M⁻¹, a Kd of 112 nM, a koff of 0.0272 s⁻¹ and a kon of 243000 M⁻¹ s⁻¹.

B4: HPV58 L1 pentamer S168A (natural protein)
chain: T1 sequence with A128R, S135A
In the assay with MAb A12A3 (mouse), B4 displayed a Ka of 1.62e+08 M⁻¹, a Kd of 6.28 nM, a koff of 0.000522 s⁻¹ and a kon of 54300 M⁻¹ s⁻¹.

B5: HPV58 L1 pentamer Q165A (natural protein)
chain: T1 sequence with A128R, Q132A
In the assay with MAb A12A3 (mouse), B5 yielded a Ka of 7.28e+07 M⁻¹, a dissociation constant Kd of 13.8 nM, a koff of 0.00228 s⁻¹ and a kon of 167000 M⁻¹ s⁻¹.

B6: HPV58 L1 pentamer N170A (natural protein)
chain: T1 sequence with A128R, N137A
In the assay with MAb A12A3 (mouse), B6 showed a Ka of 1.53e+08 M⁻¹, a Kd of 6.52 nM, an off-rate (koff) of 0.000644 s⁻¹ and a kon of 98400 M⁻¹ s⁻¹.

B7: MAb A12A3 (antibody, V domains shown)
VH: EVQLQQSGAELVRPGALVKLSCKASGFNIKDYYMHWVKQRPEQGLEWIGWIDPENGKTIYDPRFRGKASITADTSSNTAYLQLSSLTSEDAAVYYCATSNYRYDRSFDYWGQGTTLTVSA
VL: DIQMTQSPSSLFASLGGKVTITCKASQDINKYIAWFQHKPGKGPRLLIHYTFTLQPGIPSRFSGSGSGRDYSFSISNLEPEDIATYYCLQYHNLYTFGGGTKLEIK
notes: also called A12A3 IgG
Consider B7, for which the IC50 of neutralisation of the HPV33 KAT PsV mutant in assay [1] worked out at 4.3 µg/mL. Moreover, the results for the fold increase of the EC50 against the WT HPV58 VLP in assay [2], in assay [3] and in assay [4] were 80 fold, 2 fold and 2 fold, respectively. In the assay with HPV58 L1 pentamer [5], the Ka was found to be 1.91e+08 M⁻¹. Further, the Kd in the assay with HPV58 L1 pentamer [5] was determined as 5.33 nM. The same molecule gave a koff with HPV58 L1 pentamer [5] of 0.0004 s⁻¹. In addition, the kon with HPV58 L1 pentamer [5] amounted to 78400 M⁻¹ s⁻¹. The EC50 in the assay with HPV58 L1 pentamer [6] is 0.0085 µg/mL; with HPV58 L1 VLP it was 0.0104 µg/mL.

The Kd is the concentration at which binding is half-saturated. A low value points to higher affinity. In general, koff refers to the first-order rate constant of dissociation. Lower therefore signals a long-lived complex. The kon is the rate constant with which the complex forms. As usually defined, the EC50 is the concentration giving half of the maximal effect.
